The values below come from article PMC2700083, “A covalent peptide inhibitor of RGS4 identified in a focused one-bead, one compound library screen” (BMC Pharmacology, 2009).

What all share (assay): FCPIA (flow cytometry protein interaction assay, Luminex beads); dose curves of 5nd on RGS4 cysteine mutants (5 nM, or 20 nM for the mutants with no Cys in the domain or the C-terminus) and labeled Gαo; curves constrained to 100% and 0%
For orientation: A flow cytometer gives signals particle by particle.

Experiment [1] concerns the target MBP-RGS4Δ51N -7C mutant (all 7 cysteines removed) (UniProt P49799).
Experiment [2] concerns the target MBP-RGS4Δ51N A132C in the -7C (UniProt P49799).
Experiment [3] concerns the target MBP-RGS4Δ51N A148C in the -7C (UniProt P49799).
Experiment [4] deals with MBP-RGS4Δ51N A71C in the -7C (UniProt P49799).
In experiment [5] the target is MBP-RGS4Δ51N A95C in the -7C (UniProt P49799).
For experiment [6], the target named is MBP-RGS4Δ51N with no Cys in the C-terminus (UniProt P49799).
Experiment [7] deals with MBP-RGS4Δ51N with no Cys in the RGS domain (UniProt P49799).
In experiment [8] the target is MBP-RGS4Δ51N with no Cys in the C-terminus (UniProt P49799). This is another data set of the same source.

Like-named read-outs stand apart in the source and are kept apart here. Bridges are numbered along the chain shown (N, C = ends).

B1: Peptide 5nd (Tyr-Trp-c[Cys-Lys-Gly-Leu-Cys]-Lys-NH2, S-S) (peptide)
peptide: H-YWCKGLCK-NH2
modifications: disulfide 3-7
SMILES: CC(C)C[C@@H]1NC(=O)CNC(=O)[C@H](CCCCN)NC(=O)[C@@H](NC(=O)[C@H](Cc2c[nH]c3ccccc23)NC(=O)[C@@H](N)Cc2ccc(O)cc2)CSSC[C@@H](C(=O)N[C@@H](CCCCN)C(N)=O)NC1=O
Take B1: the logIC50 in experiment [1] was -3.24 log M; in experiment [2] it was -3.41 log M; in experiment [3] it was -3.51 log M; in experiment [4] it was -3.2 log M; in experiment [5], -3.58 log M; in experiment [6], -4.39 log M. Also, the logIC50 in experiment [7] is -3.8 log M; in experiment [8], -4.5 log M.
